The labels stand for the following.
T1: CEACAM1-his (human)
T1 chain: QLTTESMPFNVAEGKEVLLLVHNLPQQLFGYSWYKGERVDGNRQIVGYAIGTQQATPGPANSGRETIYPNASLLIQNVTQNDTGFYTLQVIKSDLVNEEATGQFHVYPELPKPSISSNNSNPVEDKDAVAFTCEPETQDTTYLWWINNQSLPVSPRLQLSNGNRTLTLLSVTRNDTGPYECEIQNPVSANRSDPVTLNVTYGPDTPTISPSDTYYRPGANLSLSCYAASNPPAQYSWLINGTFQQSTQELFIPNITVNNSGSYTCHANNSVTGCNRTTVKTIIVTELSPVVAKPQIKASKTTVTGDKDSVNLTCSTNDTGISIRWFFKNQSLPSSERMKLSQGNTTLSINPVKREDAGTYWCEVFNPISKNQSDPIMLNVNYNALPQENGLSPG

T2: CEACAM6 (human, UniProt P40199)
T2 chain: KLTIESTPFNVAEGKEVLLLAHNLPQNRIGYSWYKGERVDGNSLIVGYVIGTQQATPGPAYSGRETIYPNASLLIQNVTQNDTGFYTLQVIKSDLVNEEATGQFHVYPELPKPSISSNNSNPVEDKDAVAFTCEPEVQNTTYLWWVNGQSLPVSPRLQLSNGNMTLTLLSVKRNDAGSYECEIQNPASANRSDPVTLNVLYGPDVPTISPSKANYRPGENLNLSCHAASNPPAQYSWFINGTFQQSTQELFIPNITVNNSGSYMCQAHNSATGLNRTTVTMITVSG

T3: CEACAM5 (human, UniProt P06731)
T3 chain: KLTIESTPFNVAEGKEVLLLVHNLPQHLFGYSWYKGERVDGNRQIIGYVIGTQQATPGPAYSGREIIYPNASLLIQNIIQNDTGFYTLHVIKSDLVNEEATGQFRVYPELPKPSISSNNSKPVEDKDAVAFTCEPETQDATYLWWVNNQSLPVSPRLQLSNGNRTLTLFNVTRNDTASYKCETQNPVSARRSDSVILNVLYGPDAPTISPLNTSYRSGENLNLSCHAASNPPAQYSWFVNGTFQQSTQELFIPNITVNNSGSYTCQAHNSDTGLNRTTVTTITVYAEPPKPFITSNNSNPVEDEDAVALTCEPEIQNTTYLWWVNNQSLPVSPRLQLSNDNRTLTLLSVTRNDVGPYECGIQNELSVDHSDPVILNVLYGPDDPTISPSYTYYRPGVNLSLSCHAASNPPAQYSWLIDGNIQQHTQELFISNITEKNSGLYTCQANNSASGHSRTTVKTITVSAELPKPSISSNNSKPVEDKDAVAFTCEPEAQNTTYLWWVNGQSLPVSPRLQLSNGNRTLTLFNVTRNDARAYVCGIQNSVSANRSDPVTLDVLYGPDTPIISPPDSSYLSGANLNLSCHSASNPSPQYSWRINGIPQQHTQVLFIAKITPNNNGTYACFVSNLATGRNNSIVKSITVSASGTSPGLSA

T4: CEACAM3 (human, UniProt P40198)
T4 chain: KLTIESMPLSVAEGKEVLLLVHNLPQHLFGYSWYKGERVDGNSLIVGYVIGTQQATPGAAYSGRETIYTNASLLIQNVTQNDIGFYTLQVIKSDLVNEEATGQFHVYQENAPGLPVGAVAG

B1: h9D12.G4.H0bL7 (antibody, V domains shown)
VH: QVQLVQSGAEVKKPGASVKVSCKASGFNIKDTYMHWVRQAPGQGLEWMGRIDLASGDSKYDPKFQGRVTMTRDTSTSTVYMELSSLRSEDTAVYYCARAHFGGGNWYFDVWGQGTTVTVSS
VL: DIQLTQSPSFLSASVGDRVTITCSASSSVSYMHWYQQKPGQAPKPWIYEISKLASGVPSRFSGSGSGTEYTLTISSMQSEDFAVYYCQQWNYPLTFGQGTKLEIK
B2: h2C10.G4.H0aL4 (antibody, V domains shown)
VH: QVQLVQSGAEVKKPGASVKVSCKASGFAFTNYLIEWVRQAPGQGLEWMGVLNPGSGATNYNEKFKGRVTMTRDTSISTAYMELSRLRSDDTAVYYCARGIYGGYFAMDYWGQGTLVTVSS
VL: DIQMTQSPSSLSASVGDRVTITCRASQDITTYLNWYQQKPGGAPKLLIYYTSRLHSGVPSRFSGSGSGTDFTLTISSLQPEDIATYYCQQGNTLPRTFGGGTKLEIK
B3: h2C10.G4.H0aL2 (antibody, V domains shown)
VH: B2 VH
VL: B2 VL with P8T, F71Y
B4: h4D10.G4.H4L2 (antibody, V domains shown)
VH: QVQLVQSGAEVKKPGASVKVSCKASGYTFSSYVIHWVRQAPGQGLEWMGYFNPYNNGTNYNENFKGRVTMTADTSTSTVYMELSSLRSEDTAVYYCARYYYASGSLYFDYWGQGTTVTVSS
VL: DIQMTQSPSTLSASVGDRVTITCSASSSVSYMHWYQQKPGKAPKPLIYEISKLASGVPSRFSGSGSGTEFTLTISSLQPDDAATYYCQQWNYPLITFGGGTKVEIK
B5: 2C10 (antibody, V domains shown)
VH: QVQLQQSGAELVRPGTSVKVSCKASGFAFTNYLIEWVKQRPGQGLEWIGVLNPGSGATNYNEKFKGKATLTADKSSSTAYMQLSSLTSDDSAVYFCARGIYGGYFAMDYWGQGTSVTVSS
VL: DIQMTQTTSSLSASLGDRVTISCRASQDITTYLNWYQQRPDGTVKLLIYYTSRLHSGVPSRFSGSGSGTEYSLTISNLEQEDIATYFCQQGNTLPRTFGGGTKLEIR
B6: 4D10 (antibody, V domains shown)
VH: EVQLQQSGPELVKPGASVKMSCKASGYTFSSYVIHWVRQKPGQGLEWIGYFNPYNNGTNYNENFKGKATLTSGKSSSTAYMELSSLTSEDSAVYYCARYYYASGSLYFDYWGQGTTLTVSS
VL: EIVLTQSPAIATASLGQKVTITCSASSSVSYMHWYQQKSGTSPKPWIYEISKLASGVPTRFSGSGSGTSYSLTISSMEAEDAAIYYCQQWNYPLITFGAGTKLELK
B7: 9D12 (antibody, V domains shown)
VH: EVQLQQSGAELVKPGASVKLSCTASGFNIKDTYMHWVKQRPEQGLEWIGRIDLASGDSKYDPKFQGKATITADTSSNTAYLQFSSLTSEDTAVYYCARAHFGGGNWYFDVWGAGTTVTVSS
VL: EIVLTQSPAITAASLGQKVTITCSASSSVSYMHWYQQKSGTSPKPWIYEISKLASGVPARFSGSGSGTSYSLTISSMEAEDAAIYYCQQWNYPLTFGAGTKLELK
B8: 7D4 (antibody, V domains shown)
VH: EVQLQQSGAELVRPGASVKLSCTASGFNLKDTYMHWVKQRPEQGLEWIGRIDPSDGDTKYGPKFQDKTTITADTSSNTAYLQLSSLTSEDAAVYYCARAHFGGGGWYFDVWGAGTTVTVSS
VL: B7 VL with S30G, S75R, S76N
B9: h4D10.G4.H4(N56Q Y100F)L2 (antibody, V domains shown)
VH: B4 VH with N56Q, Y100F
VL: B4 VL

Substitutions are numbered along the chain they refer to. Numbers in names are those of the source.

The first assay concerns the target T1, CEACAM1-his. Put plainly: BLI.
As for B1, the Kd stood at 3.68 nM.

B2 returned a Kd of 1.83 nM.

B3: the Kd was 0.85 nM.

In the case of B4, the affinity, expressed as Kd, was 1.7 nM.

Another assay deals with T2, CEACAM6. Put plainly: BLI.
On to B5, for which the binding result was “no binding”.

Take B6: the binding result is “no binding”.

On to B7, for which the binding result is reported as “no binding”.

B8: the binding result is on record as “no binding”.

The next assay addresses T1, CEACAM1-his. Put plainly: BLI. This is another data set of the same source.
For the molecule B1, the Kd is 3.68 nM. That is a single-digit nanomolar value.

B2 came in with a Kd of 1.83 nM.

With B3, the Kd stood at 0.85 nM.

For the molecule B4, the dissociation constant (Kd) worked out at 1.7 nM. This Kd lies about 2-fold higher than the previous one.

B9 yielded an equilibrium dissociation constant (Kd) of 2.02 nM.

In the next assay the target is T1, CEACAM1-his. As to the kind of experiment: BLI. This is another data set of the same source.
B4 had a dissociation constant (Kd) of 2.65 nM.

On to B9, for which the equilibrium dissociation constant (Kd) worked out at 3.31 nM.

In a further assay the target is T3, CEACAM5. Put plainly: BLI.
In the case of B6, the binding result is recorded as “no binding”.

A further assay concerns the target T1, CEACAM1-his. As to the kind of experiment: BLI. The source holds these as a separate data set.
B5 displayed a Kd of 0.955 nM.

In turn, B7 came in with a Kd of 2.9 nM.

As to B8, the Kd came out at 6.97 nM. Compared with the last molecule, the Kd is about 2.4-fold higher.

The next assay addresses CEACAM1 (cell surface) (human). Put plainly: FACS, HepG2.
B1 gave an EC50 of 0.0974 µg/mL.

In turn, B2 displayed an EC50 of 0.0491 µg/mL.

Molecule B3 came in with an EC50 of 0.0684 µg/mL.

Consider B4, for which the EC50 came to 0.039 µg/mL. This EC50 is about 1.8-fold lower than that of the molecule before.

For a further assay, the target named is CEACAM1 (cell surface) (human). Put plainly: FACS, BxPC-3.
CEACAM1 (cell surface) (human), sequence (chain, as listed by the source): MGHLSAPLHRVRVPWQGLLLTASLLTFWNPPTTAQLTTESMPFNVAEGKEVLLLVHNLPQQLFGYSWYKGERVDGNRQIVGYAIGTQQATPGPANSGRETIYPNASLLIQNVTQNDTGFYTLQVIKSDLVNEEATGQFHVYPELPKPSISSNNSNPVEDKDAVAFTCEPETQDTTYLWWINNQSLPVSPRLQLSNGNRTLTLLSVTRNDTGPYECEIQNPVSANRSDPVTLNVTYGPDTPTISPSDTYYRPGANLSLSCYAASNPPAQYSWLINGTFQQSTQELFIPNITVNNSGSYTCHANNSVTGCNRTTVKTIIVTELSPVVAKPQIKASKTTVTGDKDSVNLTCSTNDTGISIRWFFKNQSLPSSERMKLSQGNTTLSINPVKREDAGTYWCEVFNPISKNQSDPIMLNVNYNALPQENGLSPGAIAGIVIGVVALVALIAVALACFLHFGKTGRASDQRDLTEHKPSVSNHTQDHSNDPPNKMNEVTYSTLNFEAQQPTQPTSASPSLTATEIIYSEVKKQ
With B1, the EC50 amounted to 0.0723 µg/mL.

Consider B2, for which a half-maximal effect (EC50) was put at 0.031 µg/mL.

With B3, the EC50 was determined as 0.0464 µg/mL.

The molecule B4 showed an EC50 of 0.0263 µg/mL.

In turn, B9 returned an EC50 of 0.0211 µg/mL.

The target in the next assay is T4, CEACAM3. As to the kind of experiment: BLI.
Take B5: the binding result is listed as “no binding”.

In the case of B6, the binding result is reported as “no binding”.

The target of another assay is CEACAM1 (cell surface) (human). Put plainly: FACS, Raji-CEACAM1.
Take B2: a half-maximal response (EC50) required 0.0862 µg/mL.

Regarding B3, the midpoint of the response, the EC50, lay at 0.0746 µg/mL.

B4 had an EC50 of 0.0699 µg/mL.
